For 2 substances, hydrolysis of microcrystalline cellulose and pre-treated switchgrass (soluble reducing sugars) results are on record in patent publication US9371520B2.

The target of this test is purified native cellulosome of C. thermocellum ATCC 27405 (C. thermocellum ATCC 27405) (UniProt Q06851).

“wild-type (WT) BglA, β-glucosidase A from C. thermocellum, as cloned (enzyme)”: the hydrolysis of microcrystalline cellulose and pre-treated switchgrass (soluble reducing sugars) came out at 2.06 fold.

Regarding “BglA-CohII (chimaeric C. thermocellum β-glucosidase A fused to the type-II cohesin module of the Orf2p anchoring protein) (enzyme)”, the hydrolysis of microcrystalline cellulose and pre-treated switchgrass (soluble reducing sugars) is 2.68 fold.
